The record followed here is patent US20050090447A1, “Peptides that promote complement activation” (Baxter International Inc., priority 2003, published 2005).

The target of test [1] is T1, C5 (Homo sapiens, UniProt P01031).
T1 construct: purchased Advanced Research Technologies
The test is described as follows: Phage clone binding to biotinylated C5 (neutravidin capture, anti-M13 antibody detection). Conditions: phage clones, FIG. 1. As for the experimental part: FIG. 1 is a bar graph depicting the binding of peptide #1, peptide #2, and peptide #3 to C5. […] Wild-type M13 phage without a peptide fused to the pill protein was used as a negative control for this assay.
To confirm that Peptides 1, 2, and 3 (Sequence I. D. Nos:1, 2, and 3, respectively) bind C5, the phage clones were tested in a binding assay with increasing amounts of phage incubated with constant biotinylated C5, captured on a neutravidin plate and detected with an anti-phage antibody. Increasing concentrations of each phage clone were incubated for 2 hours with 200 ng of biotinylated C5 in PBS containing 0.5% BSA. The phage bound C5 complex was captured on a neutravidin coated microplate for 20 minutes at room temperature and then washed well. A peroxidase labeled anti-M13 antibody (Pharmacia) was used to detect the amount of phage bound to C5 with OPD substrate.

Test [2] has as its system classical pathway. Description: Classical pathway hemolytic assay, antibody sensitized sheep erythrocytes in pooled human plasma. In kind it is cell-based. Conditions: disulfide bond reduced and cysteines alkylated; data not shown. On the procedure:
FIGS. 2A and 2B are bar graphs depicting percent hemolysis above control versus peptide concentration with peptides 1, 2, and 3 for classical pathway activation (FIG. 2A), and alternative pathway activation (FIG. 2B). Percent hemolysis above control is the percent lysis of erythrocytes for each peptide concentration minus the lysis of erythrocytes in the absence of peptide.
Activation of the classical and alternative pathway by the peptides was measured using standard hemolysis assays. For the classical pathway various concentrations of peptide were incubated with 50 ul pooled human plasma (diluted 1:30 with GVB++), 5×10^7 antibody sensitized sheep erythrocyte cells, and GVB++buffer to a final volume of 200 ul. The reaction was incubated at 37° C. for one hour and centrifuged. The percentage of lysis was determined by measuring the optical density of the supernatant at 414 nm. […] Lysis of the erythrocytes was not observed when the peptides were incubated in the absences of a source of complement (plasma). The peptides altered the activity of the complement protein(s) and increased the level of activation of the complement cascade resulting in an increase in hemolysis. Furthermore, when the disulfide bond of peptide 2 was reduced and the cysteines alkylated, enhancement of erythrocyte lysis was reduced (data not shown).

Test [3] deals with E. coli strain 07:K1:NM (ATCC 23503). The test is described as follows: Bactericidal assay, complement-mediated killing in pooled human plasma, colony count. As to conditions: 100 uM peptide, one hour 37° C.; plasma alone 71%. In kind it is cell-based. As for the experimental part: FIG. 4 is a bar graph depicting bacteriocidal activity of peptides against E. coli O7:K1:NM. Controls were run with plasma alone, complement inactivated (heat inactivated) plasma, and PBS/0.5% BSA.
The ability of Peptides 1- 3 to enhance complement-mediated killing of bacteria was examined. A virulent strain of E. coli that was chosen for the assays. E. coli strain 07:K1:NM (ATCC 23503), a strain less susceptible to complement mediated killing than most strains of E. coli, were grown in LB media to an optical density (OD) at 600 nm between 0.3 to 0.4 at 37° C. The cells were washed and resuspended in PBS containing 0.5% BSA and the concentration of cells determined from the OD at 600 nm. The cells were diluted in PBS/0.5% BSA to a concentration of 2×10^5 cfu/mL and 100 ul of cells were added to 100 ul of pooled human plasma containing 100 uM of peptide. The sample was incubated for one hour at 37° C. 10 ul aliquots were removed before and after the incubation and bacterial survival was examined by the colony count method (counting cells on LB agar before and after incubation). Heat inactivated plasma (56° C., 30 min.), plasma with no peptide, and PBS/0.5% BSA were also incubated with the cells as controls.

Bridge positions count the residues as written; N and C are the ends. Ends that are not written are not given here.

T1 sequence (P01031 19-1676): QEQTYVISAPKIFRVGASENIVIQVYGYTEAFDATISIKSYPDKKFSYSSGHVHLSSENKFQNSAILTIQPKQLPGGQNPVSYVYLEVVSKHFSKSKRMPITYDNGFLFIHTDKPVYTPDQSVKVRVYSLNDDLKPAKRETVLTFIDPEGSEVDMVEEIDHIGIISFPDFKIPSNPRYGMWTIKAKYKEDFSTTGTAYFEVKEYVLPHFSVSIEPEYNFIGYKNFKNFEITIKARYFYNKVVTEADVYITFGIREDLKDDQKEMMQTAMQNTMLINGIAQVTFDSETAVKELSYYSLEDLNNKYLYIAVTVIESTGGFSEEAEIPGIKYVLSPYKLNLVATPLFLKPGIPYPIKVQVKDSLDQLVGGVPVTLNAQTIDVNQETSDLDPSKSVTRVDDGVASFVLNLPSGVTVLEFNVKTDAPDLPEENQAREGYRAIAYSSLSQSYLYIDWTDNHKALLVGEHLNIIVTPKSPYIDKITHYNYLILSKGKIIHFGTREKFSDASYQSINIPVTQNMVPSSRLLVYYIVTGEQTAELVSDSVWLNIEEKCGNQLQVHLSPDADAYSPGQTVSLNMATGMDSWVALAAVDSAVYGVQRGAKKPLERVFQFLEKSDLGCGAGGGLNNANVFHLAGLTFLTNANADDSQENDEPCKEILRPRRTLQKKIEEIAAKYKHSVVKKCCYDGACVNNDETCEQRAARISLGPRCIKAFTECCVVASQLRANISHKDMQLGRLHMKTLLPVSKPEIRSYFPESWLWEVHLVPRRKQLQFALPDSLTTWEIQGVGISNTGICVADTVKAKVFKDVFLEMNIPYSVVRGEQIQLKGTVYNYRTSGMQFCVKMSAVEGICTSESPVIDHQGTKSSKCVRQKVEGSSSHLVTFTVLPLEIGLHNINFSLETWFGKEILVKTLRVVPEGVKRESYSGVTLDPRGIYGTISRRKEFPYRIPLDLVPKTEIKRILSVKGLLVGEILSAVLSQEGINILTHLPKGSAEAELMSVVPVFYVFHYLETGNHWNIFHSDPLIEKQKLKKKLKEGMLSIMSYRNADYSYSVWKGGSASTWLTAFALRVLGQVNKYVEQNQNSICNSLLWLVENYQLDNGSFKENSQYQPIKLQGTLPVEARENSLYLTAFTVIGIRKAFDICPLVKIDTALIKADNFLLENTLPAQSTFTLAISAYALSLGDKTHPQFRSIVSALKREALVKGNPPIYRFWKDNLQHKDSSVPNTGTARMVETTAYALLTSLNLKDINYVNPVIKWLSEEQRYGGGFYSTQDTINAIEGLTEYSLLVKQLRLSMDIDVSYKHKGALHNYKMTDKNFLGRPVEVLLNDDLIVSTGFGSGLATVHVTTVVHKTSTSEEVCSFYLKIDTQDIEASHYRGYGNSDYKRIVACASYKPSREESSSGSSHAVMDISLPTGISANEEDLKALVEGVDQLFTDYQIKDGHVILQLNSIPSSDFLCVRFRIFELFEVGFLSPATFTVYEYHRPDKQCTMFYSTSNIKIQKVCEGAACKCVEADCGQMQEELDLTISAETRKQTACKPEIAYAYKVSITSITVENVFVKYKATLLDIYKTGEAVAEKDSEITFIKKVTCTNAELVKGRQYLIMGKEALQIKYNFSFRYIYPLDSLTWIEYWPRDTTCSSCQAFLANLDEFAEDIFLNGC

Consider “CPSSPPHMC (YCPSSPPHMCGGG; disulfide 2-10 (inferred)) [Peptide 2, synthetic form has added N terminal tyrosine and three C terminal glycines]”, for which the “relative affinity for C5 (rank order)” value in test [1] was “followed by Peptide 2”. The “enhancement of erythrocyte lysis” value in test [2] is recorded as “reduced”.

With “CLSAHHHMC (YCLSAHHHMCGGG; disulfide 2-10 (inferred)) [Peptide 1, synthetic form has added N terminal tyrosine and three C terminal glycines]”, in test [1], the “relative affinity for C5 (rank order)” value is “tightest relative affinity”. Also, the bacterial survival in test [3] worked out at 23%. Regarding “CPGKASPWC (YCPGKASPWCGGG; disulfide 2-10 (inferred)) [Peptide 3, synthetic form has added N terminal tyrosine and three C terminal glycines]”, the “relative affinity for C5 (rank order)” value in test [1] is listed as “then Peptide 3”.
